Source: patent publication US20170052184A1 (published 2017)

Columns and labels:
[1] = biological target: T1, HCV Core 134-171-TT Peptide (hepatitis C virus (HCV-1 numbering) …); assay: SPR, captured mAb, peptide analyte
T1 construct: also called ALRZ-9 peptide

[2] = biological target: T2, HCV bt-141-161 (Peptide 2, HCVc 141-161) (Hepatitis C virus (numbering per HCV-1), biotin (carboxy-terminal per; N-terminal per)); assay: EIA, captured mAb + biotin peptide
T2 peptide: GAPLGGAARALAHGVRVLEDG

[3] = biological target: T3, HCV bt-134-154 (Peptide 1, HCVc 134-154) (Hepatitis C virus (numbering per HCV-1), biotin (carboxy-terminal per; N-terminal per)); assay: EIA, captured mAb + biotin peptide
T3 peptide: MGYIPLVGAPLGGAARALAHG

[4] = biological target: T4, HCV bt-151-171 (Peptide 3, HCVc 151-171) (Hepatitis C virus (numbering per HCV-1), biotin (carboxy-terminal per; N-terminal per)); assay: EIA, captured mAb + biotin peptide
T4 peptide: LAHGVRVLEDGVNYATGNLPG

B1: HCV 208B-174 (antibody, V domains shown)
VH: EVKLEESGGGLVQPGGSMKLSCVASGFSFSSYWMSWVRQSPEKGLDWVAEIRLRSDNYATHYAESVKGRFTISRDDSISRLYLQMNTLRAEDTGIYYCTWMTYWGQGTLVTVSA
VL: QNVLTQSPAIMSASPGEKVTMSCSASSSVTYMFWYQLKPESSPRLLIYDTSNLASGVPVRFSGSGSGTSYSLTISRMEAEDAATYYCQEWSSYPLTFGAGTKLDLKR
Kd [1]: 0.25 nM | koff [1]: 0.00018 s⁻¹ | kon [1]: 760000 M⁻¹ s⁻¹

B2: HCV 208A-352 (antibody, V domains shown)
VH: QGQMQQSGAELVKPGASVKLSCKTSGFTFSSSFISWLKQKPGQSLEWIAWIYAGTGNTNYNQKFTDKAQLTVDTSSSTAYMQFSSLTTEDSAIYYCAISGTGFTYWGQGTLVTVSA
VL: DVLMAQTPLSLPVTLGDQASISCRSSQSLVHSNGNTYLEWFLQKPGQSPKLLIYNVSNRFSGVPDRFSGSGSGTDFTLKISRVEAEDLGVYYCFQGSHVPLTFGSGTKLEIKR
Reactivity (OD 492 nm) [2]: 0.07 OD units | Reactivity (OD 492 nm) [3]: 1.08 OD units | Reactivity (OD 492 nm) [4]: 0.06 OD units

B3: HCV 208B-471 (antibody, V domains shown)
VH: QGQLQQSGPVLVKPGASEILYCKTSGFTFSSTYISWLKQKPGQSLEWIAWIYAGTGATNYNQKFTGKAQLTVDASSNTAYMHFSGLTPEDSAIYYCAISGAGVYWGQGTLVTVSA
VL: DVVMTQTPLSLPVSLGDQASISCRSSQSLLHSNGNTYLEWYLQKPGQSPNLLIYNVSNRFSGVPDRFSGSGSGTDFALKISRVGAEDLGVYYCFQGSHVPLTFGAGTKLELKR
Kd [1]: 0.25 nM | koff [1]: 5.5e-05 s⁻¹ | kon [1]: 220000 M⁻¹ s⁻¹

B4: HCV 208A-692 (antibody, V domains shown)
VH: QGQMQQSGAELAKPGASVKLSCKTSGFTFSSSYISWLKQKPGQSLEWIAWIFAGTGNTNYNQKFTDKAQLTVDTSSSTAYMQLSSLTTEDSAIYYCAISGTGFTYWGQGTLVTVSA
VL: EVLMTQSPLSLPVSLGDQASISCRSSQSLEHSNGNTYLEWFLQRPGQPPKLLIYKVSSRFSGVPDRFSGSGSGTDFTLKISRVEAEDLGVYYCFQGSHVPFTFGSGTKLAIKR
Reactivity (OD 492 nm) [3]: 3.67 OD units | Reactivity (OD 492 nm) [4]: 0.07 OD units

B5: HCV 208A-983 (antibody, V domains shown)
VH: QGQMQQSGAELVKPGASVKLSCKTSGFTFSSSYFSWLKQKPGQSLEWIAWIYAGTGNTIYNQKFTDKAQLTVDTASSTAFMQLSSLTIEDSAIYYCAISGTGFTYWGQGTLVTVSA
VL: DVLMTQTPLSLPVNLGDQASISCRSSQSLLHSNGNTYLEWFLQKPGQSPKLLIYNVSNRFSGVPDRFSGSGSGTDFTLKISRVEAEDLGVYYCFQGSHVPFTFGSGTKLAIKR
Kd [1]: 0.46 nM | koff [1]: 4.6e-05 s⁻¹ | kon [1]: 97000 M⁻¹ s⁻¹

B6: HCV 208B-408 (antibody, V domains shown)
VH: EVKLVESGGGLVQPGGSLRLSCASSGFTFTDYYMSWVRQPPGKALEWLGFIRNKAYGYTTEFSASVNGRFTISRDDSQSVPYLQMNTLRAEDSATYYCARVLYYDYGGFAYWGQGTLVTVST
VL: DIQMTQSPASLSASVGETVTITCRASGNIHTYLAWYQQKQGKSPQLLVYNANTLADGVPSRFSGSGSGTQFSLKINSLQPDDFGSYYCQHFWSAPWTFGGGTQLEIKR
Reactivity (OD 492 nm) [3]: 0.81 OD units | Reactivity (OD 492 nm) [4]: 0.16 OD units

B7: HCV 208A-1064 (antibody, V domains shown)
VH: EVQLQQSGPELVKPGASVKISCKTSGYTFTEYAMHWMKQSHGKSLEWIGGINPTNGDTIYNQKFKDKAKLTVDRSSSTAYMELRSLTSDDSALFYCARRELDYFASWGQGTTLTVSS
VL: DIVLTQSPASLIVSLGQTATISCRASQSVSTSRFSYLHWIQQKPGQPPKLLIKYASNLESGVPVRFSGSGSGTDFTLNIHPVEEEDTATYFCQHSWEFPFTFGSGTKLKIKR
Reactivity (OD 492 nm) [2]: 3.5 OD units | Reactivity (OD 492 nm) [3]: 0.1 OD units | Reactivity (OD 492 nm) [4]: 0.12 OD units

B8: HCV 208A-920 (antibody, V domains shown)
VH: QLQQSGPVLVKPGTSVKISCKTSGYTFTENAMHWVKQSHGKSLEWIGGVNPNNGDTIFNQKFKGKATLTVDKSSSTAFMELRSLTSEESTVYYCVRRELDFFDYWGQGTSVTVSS
VL: DIVLTQSPASLAVSLGQRATISCRASQSVSTSRYSYMHWYQQKPGQPPKLLIKYASNLESGVPARFSGSGSGTDFTLNIHPVAEEDTAAYYCQHSWEFPFTFGSGTKLEIKR
Reactivity (OD 492 nm) [2]: 4 OD units | Reactivity (OD 492 nm) [3]: 0.17 OD units | Reactivity (OD 492 nm) [4]: 0.08 OD units

B9: HCV 208A-126 (antibody, V domains shown)
VH: QLQQSGPVLVKPGASVMISCKTSGYTFTENAMHWVKQSHGKSLEWIGGVNPNNGDTIFNQKFKGKATLTVDKSSNTAFTELRSLPSEESTVYYCVRRGLDFFDYWGQGTSVTVSS
VL: DIVLTQSPASLAVSLGQRATISCRASQSVSTSRYSYMHWYQQKPGQPPKLLIKYASNLESGVPARFSGSGSGTDFTLNIHPVAEEDTAAYYCQHSWEFPFTFGSGTKLEIKR
Reactivity (OD 492 nm) [2]: 2.08 OD units | Reactivity (OD 492 nm) [3]: 0.2 OD units | Reactivity (OD 492 nm) [4]: 0.1 OD units

B10: HCV 208A-110 (antibody, V domains shown)
VH: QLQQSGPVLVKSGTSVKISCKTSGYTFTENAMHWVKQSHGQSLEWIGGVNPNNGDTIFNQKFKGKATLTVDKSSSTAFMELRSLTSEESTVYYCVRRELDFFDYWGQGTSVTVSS
VL: DIVLTQSPASLAVSLGQRATISCRASQSVSTSRYSYMHWYQQKPGQPPKLLIKYASNLESGVPARFSGSGSGTDFTLNIHPVAEEDTAAYYCQHSWEFPFTFGSGTKLEIKR
Reactivity (OD 492 nm) [2]: 2.88 OD units | Reactivity (OD 492 nm) [3]: 0.07 OD units | Reactivity (OD 492 nm) [4]: 0.11 OD units

B11: HCV 208B-251 (antibody, V domains shown)
VH: QLQQSGPVLVKPGASVKISCKTSGYTFTENAMHWVKQSHGKSLEWIGGVNPNNGDTIYNQKFKGKATLTVDKSSSTAFMELRSLTSEESPVYFCVRRELDFFDYWGQGTSVTVSS
VL: DIVLTQSPASLAVSLGKKATISCRASQSVSTSRYSYMHWYQQKPGHPPKLLIKYASNLESGVPARFSGSGSGTDFTLNIHPVAEEDTAAYYCQHSWEFPFTFGSGTKLEIKR
Reactivity (OD 492 nm) [2]: 2.35 OD units | Reactivity (OD 492 nm) [3]: 0.11 OD units | Reactivity (OD 492 nm) [4]: 0.41 OD units

B12: HCV 208B-556 (antibody, V domains shown)
VH: QLQQSGPVLVKPGASVMISCKTSGYTFTENAMHWVKQSHGKSLEWIGGVNPNNGDTIFNQKFKGKATLTVDKSSSTAFMEFRSLTSEESTVYYCVRRELDFFDYWGQGTSVTVSS
VL: DIVLTQSPASLAVSLGQRATISCRASQSVSTSRYSYMHWYQQKPGQPPKLLIKYASNLESGVPARFSGSGSGTDFTLNIHPVAEEDTATYYCQHSWEFPFTFGSGTKLEIKR
Reactivity (OD 492 nm) [2]: 3.07 OD units | Reactivity (OD 492 nm) [3]: 0.13 OD units | Reactivity (OD 492 nm) [4]: 0.18 OD units

B13: HCV 208A-133 (antibody, V domains shown)
VH: QLQQSGPVLVGPGASVMISCKTSGYTFTENAMHWVEQSHGKSLEWIGGVNPNNGDTIFNQKFKGKATLTVDKSSSTAFMEFRSLTSEESTVYYCVRRELDFFDYWGQGTSVTVSS
VL: DIVLTQSPASLAVSLGQRATISCRASQSVSTSRYSYMHWYQQKPGQPPKLLIKYASNLESGVPARFSGSGSGTDFTLNIHPVAEEDTATYYCQHSWEFPFTFGSGTKLEIKR
Reactivity (OD 492 nm) [2]: 3.68 OD units | Reactivity (OD 492 nm) [3]: 0.1 OD units | Reactivity (OD 492 nm) [4]: 0.13 OD units

B14: HCV 208A-741 (antibody, V domains shown)
VH: QLQQSGPVLVKPGASVMISCKTSGYTFTENAMHWVKQSHGKSLEWIGGVNPNNGDTIFNQKFKGKATLTVDKSSSTAFMELRSLTSEESTVYYCVRRELDFFDYWGQGTSVTVSS
VL: DIVLTQSPASLAVSLGQRTTISCGASQSVSTSRFSYMHWYQQKPGQPPKLLIKYASNLESGVPARFSGSGSGTDFTLNIHPVAEEDTAAYYCQHSWEFPFTFGSGTKLEIKR
Reactivity (OD 492 nm) [2]: 3.37 OD units | Reactivity (OD 492 nm) [3]: 1.2 OD units | Reactivity (OD 492 nm) [4]: 0.06 OD units

B15: HCV 208A-334 (antibody, V domains shown)
VH: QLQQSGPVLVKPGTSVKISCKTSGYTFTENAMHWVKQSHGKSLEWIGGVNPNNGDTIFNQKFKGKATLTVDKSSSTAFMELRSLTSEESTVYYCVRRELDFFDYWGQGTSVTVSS
VL: DIVLTQSPASLAVSLGQRATISCRASQSVSTSRYSYMHWYQQKPGQPPKLLIKYASNLESGVPARFSGSGSGTDFTLNIHPVAEEDTAAYYCQHSWGFPFTFGSGTKLEIKR
Reactivity (OD 492 nm) [2]: 3.07 OD units | Reactivity (OD 492 nm) [3]: 0.05 OD units | Reactivity (OD 492 nm) [4]: 0.05 OD units

B16: HCV 208A-159 (antibody, V domains shown)
VH: QLQQSGPAQVKPGASVMISCKTSGYTFTENAMHWVKQSHGKSLEWIGGVNPNNGDTIFNQKFKDKAALTVDKSSSTAFMELRSLTSEESTVYYCVRRELDFFDYWGQGTSVTVSS
VL: DIVLTQSPASLAVSLGQRATISCRASQSVSTSRYSYVHWYQQKPGQPPKLLIKYAANLESGVPARFSGSGSGTDFTLNIHPVAEEDAAAYYCQHSWEFPFTFGSGTKLEIKR
Reactivity (OD 492 nm) [2]: 3.77 OD units | Reactivity (OD 492 nm) [3]: 0.15 OD units | Reactivity (OD 492 nm) [4]: 0.19 OD units

B17: HCV 208A-293 (antibody, V domains shown)
VH: EVQLQQSGPELVKPGASVKISCKASGFTFTEYAMHWMKQSHGKSLEWIGGINPTNGDAIYNQKFKDKAKLTVDRSSSTAYMELRSLTSDDSALFYCARRELDYFPSWGQGTTLTVSS
VL: DIVLTQSPASLIVSLGQRATISCRASQSVSTSRFSYVHWIQQKPGQPPKLLIKYASNLESGVPVRFSGSGSGTDFILNIHPVEEEDTATYFCQHSWEFPFTFGSGTKLEIKR
Reactivity (OD 492 nm) [2]: 2.42 OD units | Reactivity (OD 492 nm) [3]: 0.08 OD units | Reactivity (OD 492 nm) [4]: 0.11 OD units

B18: HCV 208B-1094 (antibody, V domains shown)
VH: EVQLQQSGPELVKPGASVKISCKTSGYTFTEYAMHWMKQSHGKSLEWIGGINPTNGDTIYNQRFKDKAKLTVDRSSSTAYMELRSLTSDDSALFYCARRELDYFASWGQGTTLTVSS
VL: DIVLTQSPASLIVSLGQTATISCRASQSLSTSRFSYVHWIQQKPGQPPKLLIKYASNLESGVPVRFSGSGSGTDFTLNIHPVEEEDTATYFCQHSWEFPFTFGSGTKLKIKR
Reactivity (OD 492 nm) [2]: 3.28 OD units | Reactivity (OD 492 nm) [3]: 0.12 OD units | Reactivity (OD 492 nm) [4]: 0.13 OD units

B19: HCV 208B-1096 (antibody, V domains shown)
VH: QVQLQQSGAGLAKPGASVKMSCKASGYTFTANKMHWAKQRPGQGLEWIGYIDPSSGYTEYNHKIQYKATLTADTSSSTAYMQLSTLTFEDSAVYYCTNFAYWGQGTLVTVSA
VL: DIVMTQTPLTLSVTIGQPASISCKSSQSLLFTNGKTYLNWFLQRPGQSPKRLIYLLSKLDSGVPDRFSGSGSGTDFTLKISRVEAEDLGVYYCLQSTYFPLTFGAGTKLELKR
Reactivity (OD 492 nm) [2]: 0.13 OD units | Reactivity (OD 492 nm) [4]: 3.56 OD units
